In the experiment the target is Flt-1 (human, UniProt P17948 27-756, limits assumed). In words: plate ELISA, growth factor coated. The procedure:
Binding specificity of each peptide was established by competition ELISA. […] After blocking with block buffer (PBS with 0.5% BSA and 0.05% TWEEN®20) for 2 hours at room temperature, the receptor-Fc fusions or biotinylated receptors were serially diluted using assay buffer (PBS with 0.5% BSA and 0.05% TWEEN®20) and incubated for 1 hour at room temperature. […] Competition ELISA was conducted in an identical fashion as described above except after blocking, a mixture of serially diluted peptide containing a constant concentration of receptor-Fc fusion or biotinylated receptor (concentration of receptor was set to EC₆₀) was added and incubated for 1 hour. All recombinant human proteins and antibodies were purchased from R &D Systems (Minneapolis, Minn.).
In general terms: ELISA stands for enzyme-linked immunosorbent assay.

The record followed here is patent US20200325187A1 (Genentech, published 2020).

Flt-1, sequence (P17948 27-756 limits assumed): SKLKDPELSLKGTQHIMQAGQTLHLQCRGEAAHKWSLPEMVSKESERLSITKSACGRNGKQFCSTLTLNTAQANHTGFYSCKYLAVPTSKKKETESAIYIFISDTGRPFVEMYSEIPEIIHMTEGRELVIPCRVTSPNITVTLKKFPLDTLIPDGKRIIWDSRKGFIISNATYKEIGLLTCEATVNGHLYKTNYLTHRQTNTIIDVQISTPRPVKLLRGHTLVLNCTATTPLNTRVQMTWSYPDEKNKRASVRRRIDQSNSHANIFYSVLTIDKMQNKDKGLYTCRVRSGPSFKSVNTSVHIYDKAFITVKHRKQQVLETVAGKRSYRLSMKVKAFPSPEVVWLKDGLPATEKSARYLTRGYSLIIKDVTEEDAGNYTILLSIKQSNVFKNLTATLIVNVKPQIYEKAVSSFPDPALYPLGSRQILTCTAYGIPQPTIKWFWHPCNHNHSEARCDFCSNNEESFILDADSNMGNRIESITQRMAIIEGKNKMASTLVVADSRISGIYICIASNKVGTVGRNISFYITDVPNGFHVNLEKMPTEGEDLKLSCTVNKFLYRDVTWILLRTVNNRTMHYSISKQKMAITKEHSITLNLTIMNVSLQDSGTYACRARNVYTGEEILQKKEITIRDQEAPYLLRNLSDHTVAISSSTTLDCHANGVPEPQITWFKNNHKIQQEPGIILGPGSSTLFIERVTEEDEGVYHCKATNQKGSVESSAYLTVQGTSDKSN

B1: PIGF-2 (ligand, human, UniProt P49763-3 19-170, looked up)
chain: LPAVPPQQWALSAGNGSSEVEVVPFQEVWGRSYCRALERLVDVVSEYPSEVEHMFSPSCVSLLRCTGCCGDENLHCVPVETANVTMQLLKIRSGDRPSYVELTFSQHVRCECRPLREKMKPERRRPKGRGKRRREKQRPTDCHLCGDAVPRR
notes: also called P1Gf-2; P1GF
In the case of B1, the binding result is reported as “binds”.
